# Assay results taken from the supplement of paper PMC10065799, “High-throughput profiling of sequence recognition by tyrosine kinases and SH2 domains using bacterial peptide display” (eLife, 2023).
# Molecular target: Hck (UniProt P08631)
# Test: phosphorylation enrichment, bacterial display (enrichment ratio); higher = better substrate or ligand; peptides without Tyr show the background
# 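Further: 11-residue human phosphosite peptides and single-mutation variants displayed on the E. coli surface, counted by deep sequencing, each peptide's frequency after selection divided by its frequency in the unselected input library; frequency after pTyr selection over input frequency; kinase dosed for 20-30% of maximal phosphorylation in three min.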
# Sequence of Hck (P08631 whole entry, looked up): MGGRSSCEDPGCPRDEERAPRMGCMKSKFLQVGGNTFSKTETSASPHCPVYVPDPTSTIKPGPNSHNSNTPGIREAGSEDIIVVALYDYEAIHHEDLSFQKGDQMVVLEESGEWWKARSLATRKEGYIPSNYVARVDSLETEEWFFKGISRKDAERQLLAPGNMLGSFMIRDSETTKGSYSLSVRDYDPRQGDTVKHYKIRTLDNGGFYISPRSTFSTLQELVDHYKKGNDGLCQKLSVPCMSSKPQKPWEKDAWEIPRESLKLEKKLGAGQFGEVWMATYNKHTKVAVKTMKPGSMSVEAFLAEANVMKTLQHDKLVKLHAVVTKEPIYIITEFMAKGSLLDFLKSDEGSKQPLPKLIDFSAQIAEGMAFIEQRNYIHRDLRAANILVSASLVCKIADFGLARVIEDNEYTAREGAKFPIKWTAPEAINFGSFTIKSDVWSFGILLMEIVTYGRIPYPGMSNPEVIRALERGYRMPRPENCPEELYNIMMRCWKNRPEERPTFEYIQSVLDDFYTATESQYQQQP
row,Sequence,phosphorylation enrichment
1,HDRGNYVQLNM [RECQL4_Y353_R355Q],0.508
2,QGIIIYRAAYF [SLC25A4_Y187],0.639
3,LKDEDYLKDTV [HAUS3_Y582_I586T],1.67
4,EGLKVYVNGTL [ADGRD1_Y183],0.457
5,PLRADYLIARV [HLCS_Y635],0.461
6,DRLASYLDKAR [KRT14_Y129_V133A],0.342
7,GRLPEYNTPIA [CCDC151_Y542_R545P],0.325
8,SSQILYKLEQS [THADA_Y701_V699I],0.49
9,EEKSCYILHSS [PATJ_Y783_E780K],0.651
10,LEDEVCAQKMK [TPM2_Y261_Y261C],0.832
11,TFLRTYTDTMQ [TSPAN7_Y124_A127T],0.403
12,SKKSTYRALLD [GANC_Y43_Q44R],0.406
13,QLHREYCLSPR [HJURP_Y445],0.889
14,TLNVRYESVQA [CEACAM7_Y236],0.487
15,SNKLHYQLEQE [PDPR_Y110_Y109H],0.535
16,GREAEYSEKHG [EPHB4_Y574_D576E],0.444
17,AEPTGYSAELS [EZR_Y499],0.616

row,Sequence,phosphorylation enrichment
1,VHSGTYQVTVR [MYBPC3_Y1043],0.738
2,PYAEPYADYGG [APBA1_Y187_S184A],1.19
3,ARTNEYKIIRS [INA_Y87_T92S],0.316
4,FFHCTYKQRMI [CLEC12A_Y242_K244Q_YF],0.498
5,HVIKFYGACSQ [RET_Y791_L790F],0.779
6,ANNPLYKEATS [ITGB3_Y773],0.385
7,KLKNAYEESLE [MYH7_Y1488],0.384
8,EFENSYIFDIN [GAB1_Y83],0.488
9,LQIPMYEVQWK [KIT_Y553_K550I],2.24
10,PELINYHQHYS [BTK_Y361_N365Y],0.356
11,WQQQSYLASGI [CTNNB1_Y30_D32A],0.447
12,CKLCQYYLDHL [ATRX_Y1849_Y1847C],0.437
13,HKLSYCEYDFE [BTK_Y40_Y40C],0.746
14,NELTYYCYKKD [CD59_Y87_C89Y],4.17
15,PVGDVYKKKGL [NMNAT1_Y55_A54V],0.646
16,DAANNYARGHF [TUBA3E_Y103_S101N_YF],0.426

# Molecular target: FGFR1 (UniProt P11362)
# Test: as above
# Sequence of FGFR1 (P11362 whole entry, looked up): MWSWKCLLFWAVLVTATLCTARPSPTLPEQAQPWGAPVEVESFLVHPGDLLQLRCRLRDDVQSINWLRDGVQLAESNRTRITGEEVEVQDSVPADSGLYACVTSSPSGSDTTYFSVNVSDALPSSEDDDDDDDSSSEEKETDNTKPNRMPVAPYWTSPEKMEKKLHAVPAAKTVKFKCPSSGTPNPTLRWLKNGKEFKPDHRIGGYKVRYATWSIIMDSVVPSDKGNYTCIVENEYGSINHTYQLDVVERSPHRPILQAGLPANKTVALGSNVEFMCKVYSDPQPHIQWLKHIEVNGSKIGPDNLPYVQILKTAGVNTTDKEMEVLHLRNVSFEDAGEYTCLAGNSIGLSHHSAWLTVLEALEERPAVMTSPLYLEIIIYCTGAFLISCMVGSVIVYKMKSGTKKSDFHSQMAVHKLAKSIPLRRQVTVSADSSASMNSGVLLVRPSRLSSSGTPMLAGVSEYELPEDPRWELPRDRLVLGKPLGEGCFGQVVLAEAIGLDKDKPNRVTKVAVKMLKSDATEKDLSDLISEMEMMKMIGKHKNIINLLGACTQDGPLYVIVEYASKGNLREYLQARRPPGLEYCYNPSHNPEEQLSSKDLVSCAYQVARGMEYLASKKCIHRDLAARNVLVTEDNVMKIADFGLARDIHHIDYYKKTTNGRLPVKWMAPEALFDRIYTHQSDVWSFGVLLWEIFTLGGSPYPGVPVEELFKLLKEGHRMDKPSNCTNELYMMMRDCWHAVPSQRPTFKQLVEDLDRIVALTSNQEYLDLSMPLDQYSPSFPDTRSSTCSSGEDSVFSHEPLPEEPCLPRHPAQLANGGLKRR
row,Sequence,phosphorylation enrichment
1,HDRGNYVQLNM [RECQL4_Y353_R355Q],1.99
2,QGIIIYRAAYF [SLC25A4_Y187],0.688
3,LKDEDYLKDTV [HAUS3_Y582_I586T],1.88
4,EGLKVYVNGTL [ADGRD1_Y183],0.527
5,PLRADYLIARV [HLCS_Y635],0.8
6,DRLASYLDKAR [KRT14_Y129_V133A],0.37
7,GRLPEYNTPIA [CCDC151_Y542_R545P],0.388
8,SSQILYKLEQS [THADA_Y701_V699I],0.4
9,EEKSCYILHSS [PATJ_Y783_E780K],0.755
10,LEDEVCAQKMK [TPM2_Y261_Y261C],0.79
11,TFLRTYTDTMQ [TSPAN7_Y124_A127T],0.486
12,SKKSTYRALLD [GANC_Y43_Q44R],0.347
13,QLHREYCLSPR [HJURP_Y445],0.898
14,TLNVRYESVQA [CEACAM7_Y236],0.451
15,SNKLHYQLEQE [PDPR_Y110_Y109H],0.496
16,GREAEYSEKHG [EPHB4_Y574_D576E],0.418
17,AEPTGYSAELS [EZR_Y499],0.528

row,Sequence,phosphorylation enrichment
1,VHSGTYQVTVR [MYBPC3_Y1043],0.404
2,PYAEPYADYGG [APBA1_Y187_S184A],2.13
3,ARTNEYKIIRS [INA_Y87_T92S],0.282
4,FFHCTYKQRMI [CLEC12A_Y242_K244Q_YF],0.643
5,HVIKFYGACSQ [RET_Y791_L790F],0.871
6,ANNPLYKEATS [ITGB3_Y773],0.349
7,KLKNAYEESLE [MYH7_Y1488],0.65
8,EFENSYIFDIN [GAB1_Y83],0.478
9,LQIPMYEVQWK [KIT_Y553_K550I],1.14
10,PELINYHQHYS [BTK_Y361_N365Y],0.769
11,WQQQSYLASGI [CTNNB1_Y30_D32A],0.463
12,CKLCQYYLDHL [ATRX_Y1849_Y1847C],0.579
13,HKLSYCEYDFE [BTK_Y40_Y40C],0.762
14,NELTYYCYKKD [CD59_Y87_C89Y],2.1
15,PVGDVYKKKGL [NMNAT1_Y55_A54V],0.498
16,DAANNYARGHF [TUBA3E_Y103_S101N_YF],0.422
